Tests used:
[1] = test system: N2a cells; test: N2a proliferation, cell number at DIV5; format: cell-based, murine; conditions: 200 ng daily, vs GFP
Description: Next, 10,000 naive N2a cells were seeded and treated daily with 200 ng Negr1, PepA, PepB, PepC, or GFP. At DIV5, cell number was evaluated.

[2] = test system: N2a cells; test: N2a xenograft tumor growth in CD1 nude mice; format: in vivo
Description: 1 million N2a cells were suspended in 150 μl of DMEM high glucose and delivered subcutaneously above the left rear paw in 8-week old nu/nu mice (Charles River) by injection with a micro-syringe (Hamilton). All procedures involving animals were approved by Institutional and National Agencies (authorization 559/2016-PR).
Xenograft mouse models represent an established tool to investigate cancer progression in vivo. To this aim, 1 million N2a cells (naive, clone 3, and clone 11) was injected subcutaneously (s.c.) in immunodeficient CD1 nude mice. Tumor volume was monitored […] by measuring tumor size with a Vernier caliper. Tumor volume was calculated using the ellipsoid formula (length×width×height×0.52).
To further assess the anti-neoplastic activity of PepA, 1 million N2a cells were injected s.c in 6-weeks old CD1 nude mice. When the tumor reached 100 mm^3 volume, 2 μg of GFP or PepA were injected in situ. The treatment was repeated every second day, and tumor growth was monitored daily.
Next, 1 million N2a cells were injected s.c in 6-weeks old nude mice. […] The treatment was repeated every second day and the tumor growth was monitored daily.
Treatment was repeated every second day and tumor growth was monitored daily.
To this aim, 1 million N2a cells were injected s.c in 6-weeks old CD1 nude mice. […] The treatment was repeated every second day and the tumor growth was monitored daily.

[3] = test system: CD34; test: Tumor neo-vascularization by CD34 immunofluorescence; format: in vivo, mice; conditions: tumors treated in situ, vs GFP
Description: Tumors were dissected, post-fixed for 2 hours by immersion in 4% PFA, then included in OCT and stored at −80° C. until processing. 14 μm sections were obtained after serial sectioning on Leica cryostat and mounted on Polysine Slides (Thermo Fischer Scientific). The slices were saturated in 2.5% BSA, 10% NGS, 0.2% Triton X-100, PBS 1×, for 1 hour at RT and incubated with the primary antibody O/N at 4° C. (Anti-CD34 antibody [EP373Y], ABCAM, ab81289). After 3 washes in PBS 1×-0.2% Triton X-100 the sections were incubated for 1 h with the conjugated secondary antibody at RT (AffiniPure Goat Anti-Rabbit IgG (H+L) Alexa Fluor 594, Jackson ImmunoResearch, 111-585-003). The slices were then rinsed 3 times in PBS 1×-0.2% Triton X-100, rinsed once in PBS1× and then mounted in water-based mounting media. Sections were kept at 4° C. in the dark until acquisition with a Zeiss Axio Imager M2 equipped with 40× objective.
Cancer growth requires and triggers vascularization. In particular, cancer mass is characterized by the presence of immature vessels decorated by CD34 protein. Thus, the inventors analyzed tumor neo-vascularization by detecting CD34 protein.

[4] = test system: SH-SY5Y (neuroblastoma); test: Growth of human cancer-derived cell line, MTT assay; format: cell-based; conditions: 200 ng daily, vs GFP
Description: (§1) The 3-(4,5-dimethylthiazol-2-yl)-2,5-diphenyl tetrazolium bromide (MTT) assay was performed to evaluate culture vitality. N2a cells were cultured in a 96-well plate at a concentration of 5×10^3 cell/cm^2. Treatment condition is indicated in the result section. At the end of the treatment, the MTT solution was added to the cell medium at a final concentration of 0.25 mg/mL. The incubation lasted 30 minutes at 37° C. Next, the medium was removed and the formazan precipitates were collected in DMSO (200 μL). The absorbance was measured at 570 nm using a spectrophotometer (Varioskan LUX, Thermofisher) as a proxy for cell viability. Relative cell viability fold is expressed over the control condition.
(§2) Next, the capability of Negr1 and peptide PepA to halt the growth of human cancer-derived cell lines, namely U87 (glioblastoma), SK-Mel5 (melanoma), MCF7 (breast adenocarcinoma), A549 (adenocarcinoma alveolar basal epithelial cells), and SH-SY5Y (neuroblastoma) was tested. To this aim, each line was treated daily with 200 ng GFP, rNegr1, or PepA. At DIV5, cellular growth was evaluated by MTT assay. […] Such results are in good agreement with the expression of the receptor ALK, that has been experimentally detected in cancer cell lines of ectodermal origin (including small cell lung carcinoma, breast carcinoma, melanoma, neuroblastoma, and glioblastoma) (Dirks et al. 2002).

[5] = test system: A549 (adenocarcinoma alveolar basal epithelial cells); test: as above; format: cell-based; conditions: 200 ng daily, vs GFP
Description: as §1, §2

[6] = test system: SK-Mel5 (melanoma); test: as above; format: cell-based; conditions: 200 ng daily, vs GFP
Description: as §1, §2

[7] = test system: MCF7 (breast adenocarcinoma); test: as above; format: cell-based; conditions: 200 ng daily, vs GFP
Description: as §1, §2

[8] = test system: U87 (glioblastoma); test: as above; format: cell-based; conditions: 200 ng daily, vs GFP
Description: as §1, §2

[9] = test system: N2a cells; test: N2a cell growth, MTT assay; format: cell-based, murine; conditions: 500 ng/ml daily, vs GFP
Description: as §1
At the physiological level, Negr1 exists as a GPI-anchored membrane-bound protein and as a soluble protein released upon metalloprotease cleavage (Sanz et al. 2015; Pischedda and Piccoli 2015). Thus, the inventors studied whether ectopic treatment with soluble recombinant Negr1 (Negr1) might modulate cancer cell growth. […] At DIV5, cellular growth was evaluated by MTT assay.
To further narrow down the minimal biologically active sequence within PepA, the PepA structure was analysed in silico. […] At DIV5, cellular growth was evaluated by MTT assay.

[10] = test system: ALK; test: ALK protein expression level in N2a cells, western blotting; format: cell-based, murine; conditions: 300 ng/ml daily for 5 days, vs GFP
Description: Protein level and relative phosphorylation was assessed by western blotting. Briefly, upon a wash in PBS, cells were solubilized in lysis buffer (150 mM NaCl, 50 mM HEPES, 0.5% NP40, 1% sodium-deoxycholate). After 1 hour under mild agitation, the lysate was clarified by centrifugation for 20 min at 16,000 g. All experimental procedures were performed at 4° C. Protein concentrations were evaluated via Bradford assay (Bio-Rad, USA). For Western blotting experiments, an equal amount of proteins was diluted with 0.25% 5× Laemmli buffer. The samples were separated on 10% SDS-PAGE gels which were transferred onto nitrocellulose membrane (Sigma-Aldrich) at 80 V for 120 min at 4° C. […] Antibodies were applied overnight in blocking buffer (20 mM Tris, pH 7.4, 150 mM NaCl, 0.1% Tween 20, and 5% nonfat dry milk). Proteins were detected using the ECL prime detection system (GE Healthcare). The ECL signals were acquired with the imaging ChemiDoc Touch system (Bio Rad Laboratory Italy, Segrate, Italy). The optical density of the specific bands was quantified with ImageLab software (Bio Rad).

[11] = test system: MYCN; test: MYCN protein expression level in N2a cells, western blotting; format: cell-based, murine; conditions: 300 ng/ml daily for 5 days, vs GFP
Description: Protein level and relative phosphorylation was assessed by western blotting. Briefly, upon a wash in PBS, cells were solubilized in lysis buffer (150 mM NaCl, 50 mM HEPES, 0.5% NP40, 1% sodium-deoxycholate). After 1 hour under mild agitation, the lysate was clarified by centrifugation for 20 min at 16,000 g. All experimental procedures were performed at 4° C. Protein concentrations were evaluated via Bradford assay (Bio-Rad, USA). For Western blotting experiments, an equal amount of proteins was diluted with 0.25% 5× Laemmli buffer. The samples were separated on 10% SDS-PAGE gels which were transferred onto nitrocellulose membrane (Sigma-Aldrich) at 80 V for 120 min at 4° C. […] Proteins were detected using the ECL prime detection system (GE Healthcare). […] The optical density of the specific bands was quantified with ImageLab software (Bio Rad).
The inventors monitored whether treatment with rNegr1 or PepA might impact on ALK-MYCN pathway. […] At DIV5, the culture was processed for western blotting and ALK and MYCN protein expression levels were evaluated.
At DIV5, the culture was processed for western-blotting, and ALK and MYCN protein expression was evaluated.

[12] = Presence in tumor, liver and kidney by STREP-pulldown after in situ injection; format: in vivo, mice; conditions: after in situ injection of 2 μg every second day, day 9
Description: HEK293 cells transfected with the relative construct were lysed in RIPA buffer (150 mM NaCl, 50 mM HEPES, 0.5% NP40, 1% Sodium-deoxycholate) for one hour at 4° C. and then processed for streptavidin immunoprecipitation. Proteins were eluted from STREP resin in elution buffer (2.5 mM Desthiobiotin, 100 mM Tris-HCL, 150 mM NaCl, 1 mM EDTA) in mild agitation for one hour at 4° C. The protein concentration was measured via standard Bradford assay (Bio-Rad), and protein purity was assessed by SDS-PAGE followed by silver staining. Synthetic peptides were purchased at Genscript Nederland. Mice tissues were lysed in RIPA buffer (150 mM NaCl, 50 mM HEPES, 0.5% NP40, 1% Sodium-deoxycholate, 1 ml/mg of tissue) for one hour at 4° C. and then processed for streptavidin immunoprecipitation. Proteins were eluted from STREP resin in Laemmli buffer.
At day 9 post injection (or earlier in case the tumor reached 2.5 cm^3 volume), the animals were sacrificed and the mice tissues were harvested and analysed for the presence of GFP and PepA.

| Molecule | N2a proliferation (cell number) at DIV5 [1] | tumor growth (tumor volume, fold over day 1) ([2]; 2 μg in situ every second day, vs GFP) | tumor growth (tumor volume, fold over day 1) ([2]; 10 μg in situ every second day, vs PEG-scramble peptide) | tumor vascularization (total area stained by CD34 and average vessel area) [3] | growth of SH-SY5Y cells (MTT) at DIV5 [4] | growth of A549 cells (MTT) at DIV5 [5] | growth of SK-Mel5 cells (MTT) at DIV5 [6] | growth of MCF7 cells (MTT) at DIV5 [7] | growth of U87 cells (MTT) at DIV5 [8] | N2a growth (MTT) at DIV5 [9] | ALK protein level [10] | MYCN protein level [11] | presence in mice tissues (STREP-pulldown) [12] |
| --- | --- | --- | --- | --- | --- | --- | --- | --- | --- | --- | --- | --- | --- |
| PepB: Negr1 IgG-like domain, SEQ ID NO:16, strep-FLAG tagged recombinant protein (protein, strep-FLAG tag; PepB) PKIYDISNDMTINEGTNVTLTCLATGKPEPVISWRHISPSAKPFENGQYLDIYGITRDQAGEYECSAENDVSFPDVKKVRVI | did not | – | – | – | – | – | – | – | – | – | – | – | – |
| PepA: first Negr1 IgG-like domain, SEQ ID NO:8, strep-FLAG tagged recombinant protein from HEK293 cells (protein, strep-FLAG tag; PepA) VDFPWAAVDNMLVRKGDTAVLRCYLEDGASKGAWLNRSSIIFAGGDKWSVDPRVSISTLNKRDYSLQIQNVDVTDDGPYTCSVQTQHTPRTMQVHL | significantly reduced N2a proliferation | robust growth reduction in tumor | robust growth reduction in tumor | strongly reduced vascularization | significantly reduce the growth | significantly reduce the growth | significantly reduce the growth | significantly reduce the growth | significantly reduce the growth | significantly reduced N2a growth | robust reduction of ALK and MYCN protein levels | robust reduction of ALK and MYCN protein levels | present in the tumor, liver, and kidney |
| PepC: Negr1 IgG-like domain, SEQ ID NO:17, strep-FLAG tagged recombinant protein (protein, strep-FLAG tag; PepC) APTIQEIKSGTVTPGRSGLIRCEGAGVPPPAFEWYKGEKRLFNGQQGIIIQNFSTRSILTVTNVTQEHFGNYTCVAANKLGTTNASLP | did not | – | – | – | – | – | – | – | – | – | – | – | – |

Reference: patent publication US20250049888A1, “USE OF THE NEGR1 PROTEIN AND BIOLOGICALLY ACTIVE FRAGMENTS THEREOF IN THE THERAPEUTIC TREATMENT OF ALK-RELATED DISEASES” (FONDAZIONE TELETHON ETS (70%), priority 2021, published 2025)
